In series [1] the target is T1, Har (Streptococcus pneumoniae, UniProt A0A0H2ZMK9).
T1 construct: gene SPD_1415; full length, 438 residues; E. coli BL21(DE3), pET28a; N-terminal 6-His tag kept for kinetics, cut by HRV-3C for crystals (4-residue scar); motif CXXXXC (C43, C48), K13, K16, H425, E430
As to the kind of experiment: X-ray crystal structure, […] Å. It is filed as binding. The note with it: tag-cleaved Har; 2.4 M sodium malonate pH 7.0, 20 °C.

For series [2], the system named is N#CSO. As to the kind of experiment: purified protein. The settings on record: 200 μM NADH, 10 nM 6-His-tagged Har, 100 mM sodium phosphate pH 7, 25 °C, HOSCN 1-50 μM.
For series [3], the target named is hypothiocyanous acid reductase (Har) (Streptococcus pneumoniae). As to the kind of experiment: AUC; sedimentation velocity; Har at 2 uM and 20 uM in 20 mM Tris-HCl pH 8.0, 150 mM NaCl; 50,000 rpm, 20 °C; 2DSA and genetic algorithm analysis in UltraScan 4.0.

These results are taken from paper PMC11107202, “Hypothiocyanous acid reductase is critical for host colonization and infection by Streptococcus pneumoniae” (The Journal of Biological Chemistry, 2024).

The term Km denotes the concentration of substrate that gives half-maximal velocity. As a reminder, the kcat is the maximal rate divided by the concentration of active sites. The stoichiometry N is a count of units in the complex or per binding partner.

Consider `Cc1cc2nc3c(=O)[nH]c(=O)nc-3n(C[C@H](O)[C@H](O)[C@H](O)COP(=O)(O)OP(=O)(O)OC[C@H]3O[C@@H](n4cnc5c(N)ncnc54)[C@H](O)[C@@H]3O)c2cc1C` [FAD], for which the “X-ray crystal structure, 1.50 Å” value in series [1] is given as “first crystal structure of full-length Har”.
Turning to Har (Streptococcus pneumoniae D39), in series [2], the Km is 3.8 ± 0.3 µM and the kcat was determined as 440 ± 10 s⁻¹.
In series [3], “hypothiocyanous acid reductase (Har) (enzyme)” came in with a stoichiometry N of 2.
